# Square brackets hold non-standard residues; d marks the D form. Ends that are not written are not given here. Hyp = O=C(O)[C@@H]1C[C@@H](O)CN1
# Assays:
# Test in all cases: ITC; 0.5–1 mM peptide titrated into 10–40 μM ecdTDR; 25°C; 10 mM sodium citrate, 100 mM NaCl, pH 5.5; fitted to one set of binding sites; MicroCal Auto-iTC200
# Settings in all cases: both partners purified
# [1] = target: T1, TDR-R421A/R423A double mutant (ecdTDR) (Arabidopsis thaliana, UniProt Q9FII5 30-642, R421A | R423A)
# T1 construct: TDR/PXY of A. thaliana, extracellular domain, residues 30-642; source: High Five insect cells (baculovirus), secreted, purified as the wild type (Ni-NTA, size-exclusion chromatography)
# T1 sequence (looked up): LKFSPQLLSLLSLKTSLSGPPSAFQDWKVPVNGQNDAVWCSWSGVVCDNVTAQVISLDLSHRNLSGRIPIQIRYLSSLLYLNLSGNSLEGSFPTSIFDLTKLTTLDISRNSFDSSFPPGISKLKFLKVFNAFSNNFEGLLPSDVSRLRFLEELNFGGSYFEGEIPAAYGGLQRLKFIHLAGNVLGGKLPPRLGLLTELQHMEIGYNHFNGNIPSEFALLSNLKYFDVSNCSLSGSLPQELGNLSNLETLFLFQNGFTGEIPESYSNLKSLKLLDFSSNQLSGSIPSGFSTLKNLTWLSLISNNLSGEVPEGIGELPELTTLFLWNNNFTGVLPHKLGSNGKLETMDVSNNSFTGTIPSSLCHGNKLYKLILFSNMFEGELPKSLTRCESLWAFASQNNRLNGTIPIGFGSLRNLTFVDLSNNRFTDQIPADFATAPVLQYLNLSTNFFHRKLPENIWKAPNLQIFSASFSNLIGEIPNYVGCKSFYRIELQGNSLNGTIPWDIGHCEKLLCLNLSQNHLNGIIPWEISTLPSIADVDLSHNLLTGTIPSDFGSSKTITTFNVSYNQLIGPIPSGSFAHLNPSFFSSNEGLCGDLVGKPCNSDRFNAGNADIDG
# [2] = target: T2, ecdTDR E231A mutant (Arabidopsis thaliana, UniProt Q9FII5 30-642, E231A)
# T2 construct: TDR/PXY of A. thaliana, extracellular domain, residues 30-642; source: High Five insect cells (baculovirus), secreted, purified as the wild type (Ni-NTA, size-exclusion chromatography)
# T2 sequence (looked up): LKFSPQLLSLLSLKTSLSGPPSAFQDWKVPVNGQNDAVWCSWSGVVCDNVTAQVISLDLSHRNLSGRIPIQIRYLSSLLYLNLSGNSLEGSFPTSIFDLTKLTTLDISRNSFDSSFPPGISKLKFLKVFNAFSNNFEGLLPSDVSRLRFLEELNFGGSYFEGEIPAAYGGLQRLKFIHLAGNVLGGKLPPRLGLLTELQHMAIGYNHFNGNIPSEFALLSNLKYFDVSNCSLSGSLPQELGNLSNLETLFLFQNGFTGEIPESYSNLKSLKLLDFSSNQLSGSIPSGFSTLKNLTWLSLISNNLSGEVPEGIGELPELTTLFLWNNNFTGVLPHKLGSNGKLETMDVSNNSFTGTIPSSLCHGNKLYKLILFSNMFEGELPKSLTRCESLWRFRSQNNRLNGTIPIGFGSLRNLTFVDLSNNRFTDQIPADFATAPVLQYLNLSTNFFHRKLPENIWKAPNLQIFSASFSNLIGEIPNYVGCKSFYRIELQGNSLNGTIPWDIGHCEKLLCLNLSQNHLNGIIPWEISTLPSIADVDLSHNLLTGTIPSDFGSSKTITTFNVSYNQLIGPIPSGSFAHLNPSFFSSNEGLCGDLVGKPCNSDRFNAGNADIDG
# [3] = target: T3, ecdTDR S305A mutant (Arabidopsis thaliana, UniProt Q9FII5 30-642, S305A)
# T3 construct: TDR/PXY of A. thaliana, extracellular domain, residues 30-642; also called alanine substitution mutation of TDR-S305; source: High Five insect cells (baculovirus), secreted, purified as the wild type (Ni-NTA, size-exclusion chromatography)
# T3 sequence (looked up): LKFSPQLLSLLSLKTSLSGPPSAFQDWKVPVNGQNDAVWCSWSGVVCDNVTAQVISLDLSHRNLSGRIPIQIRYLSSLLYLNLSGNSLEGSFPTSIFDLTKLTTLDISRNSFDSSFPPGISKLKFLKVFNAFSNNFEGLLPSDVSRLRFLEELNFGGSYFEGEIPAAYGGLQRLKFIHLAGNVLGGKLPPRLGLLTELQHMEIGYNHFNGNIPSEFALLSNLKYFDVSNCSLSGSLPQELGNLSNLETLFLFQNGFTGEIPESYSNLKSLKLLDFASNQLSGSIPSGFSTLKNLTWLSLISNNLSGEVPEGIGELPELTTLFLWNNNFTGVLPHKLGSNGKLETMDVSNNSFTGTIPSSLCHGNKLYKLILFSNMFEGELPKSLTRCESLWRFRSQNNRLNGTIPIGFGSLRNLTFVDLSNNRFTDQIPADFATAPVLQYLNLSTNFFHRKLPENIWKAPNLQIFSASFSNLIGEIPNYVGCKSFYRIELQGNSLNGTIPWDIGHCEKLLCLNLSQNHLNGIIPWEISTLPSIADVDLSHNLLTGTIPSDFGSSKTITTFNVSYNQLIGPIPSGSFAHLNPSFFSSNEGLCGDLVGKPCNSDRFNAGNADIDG
binder,measurement,setting,value
"HEV[Hyp]SG[Hyp]NPISN (TDIF, the 12-residue CLE peptide processed from CLE41 and CLE44 of A. thaliana; printed as HEV(Hyp)SG(Hyp)NPISN; numbers count on: the 12-residue peptide; CLE44 encodes the same peptide; also called wild type TDIF; wtTDIF; source: synthetic peptide (peptide 2.0)) [Tracheary Element Differentiation Inhibitory Factor (TDIF) peptide]",fold lower affinity than wild-type ecdTDR,[1],3 fold
same,binding result,[2],binds
same,fold lower binding than wild-type ecdTDR,[3],4.4 fold

# From article PMC5383425, “Differential CLE peptide perception by plant receptors implicated from structural and functional analyses of TDIF-TDR interactions” (PLoS ONE, 2017)
